{
  "source": "IntAct's records for PubMed 10487758",
  "parents": {"B1": {"name": "Protein E6 (Human papillomavirus type 16), P03126 (parent)", "chain": "MHQKRTAMFQDPQERPRKLPQLCTELQTTIHDIILECVYCKQQLLRREVYDFAFRDLCIVYRDGNPYAVCDKCLKFYSKISEYRHYCYSLYGTTLEQQYNKPLCDLLIRCINCQKPLCPEEKQRHLDKKQRFHNIRGRWTGRCMSCCRSSRTRRETQL"}},
  "data": [
    {"variants_of": "B1", "conditions": "with ep300_human EP300, Q09472", "values": [
      {"variant": "F52Y;F54Y;D56H", "effect of a mutation on the interaction": "disrupting interaction"}
    ]},
    {"variants_of": "B1", "conditions": "with ep300_human EP300, Q09472", "remark": "another data set of the same source", "values": [
      {"variant": "F52Y;F54Y;D56H", "effect of a mutation on the interaction": "decreasing interaction"},
      {"variant": "R15S;P16A;R17T", "effect of a mutation on the interaction": "decreasing interaction"},
      {"variant": "C73G;C143G", "effect of a mutation on the interaction": "disrupting interaction"}
    ]}
  ]
}
